The record followed here is US8834890B2, “Siderophore conjugate immunogenic compositions and vaccines” (University of Florida Research Foundation, Inc., priority 2009, dated 2014).

A short description of assay [1]: Iron clearance in non-iron-overloaded, bile-duct cannulated rats. The conditions noted are these: 75 μmol/kg s.c. Format: in vivo, Sprague-Dawley rats. The procedure: To support this idea, bile duct-cannulated rats were given vibriobactin (3) subcutaneously (s.c.) at a dose of 75 μmol/kg. The rodents' bile and urine were collected for 48 h to determine if vibriobactin sequestered and promoted the excretion of iron. The iron content of the bile and urine were determined using atomic absorption spectroscopy. This model has been used for many years to evaluate the efficiency with which iron chelators promote the excretion of iron from animals [Bergeron, R. J.; Streiff, R. R.; Creary, E. A.; Daniels, R. D., Jr.; King, W.; Luchetta, G.; Wiegand, J.; Moerker, T.; Peter, H. H. A Comparative Study of the Iron-Clearing Properties of Desferrithiocin Analogues with Desferrioxamine B in a Cebus Monkey Model. Blood 1993, 81, 2166-2173 and Bergeron, R. J.; Streiff, R. R.; Wiegand, J.; Vinson, J. R. T.; Luchetta, G.; Evans, K. M.; Peter, H.; Jenny, H.-B. A Comparative Evaluation of Iron Clearance Models. […]
Four rats were subjected to bile duct-cannulation as previously described. […] The iron content of the bile and urine were assessed by atomic absorption spectroscopy. Iron clearing efficiency was calculated as set forth elsewhere [Bergeron, R. J.; Wiegand, J.; McManis, J. S.; McCosar, B. H.; Weimar, W. R.; Brittenham, G. M.; Smith, R. E. Effects of C-4 Stereochemistry and C-4′ Hydroxylation on the Iron Clearing Efficiency and Toxicity of Desferrithiocin Analogues. […]

Assay [2] relates to BSA-VIB antigen. Kind of assay: Competitive binding ELISA of purified monoclonal antibodies.
Protocol: Competitive binding ELISA studies using the purified mAb were conducted. The mAb were first incubated with varying concentrations of the OVA-VIB antigen, from 0-250 μg/mL, prior to being transferred to an ELISA plate that had been coated with the BSA-VIB antigen.
In brief, the polypropylene incubation plate was blocked with 300 μL of blocking buffer (1% BSA in PBS with 0.02% azide) and was allowed to incubate overnight at 4° C. The following day, the blocking buffer was removed (flicked) from the plate, and the plate was blotted on a paper towel. A 96-well ELISA plate was coated with the BSA-VIB antigen (10 μg/mL, 50 μL/well) that had been diluted in PBS with 0.02% azide. After incubating overnight at 4° C., the plate was washed 4 times (300 μL/wash) as described above, blocked with 300 μL of blocking buffer for 1 h, and washed again. […]
Assay [3] has as its system BSA-VIB antigen. Kind of assay: Competitive binding ELISA of polyclonal serum from immunized mice. The procedure: In the competitive binding ELISA, sera from immunized mice or non-immunized mice were first incubated with potential antigens f-g, or with OVA-VIB, at antigen concentrations ranging from 0-250 μg/mL. If an antigen is an effective competitor, it will bind to the antibody during this initial incubation, leaving less antibody available to bind to a second antigen coated on the ELISA plate. This “competition” will be reflected in lower p-nitrophenol optical density values.
Competitive binding ELISAs were performed on 1) serum from immunized mice that contained polyclonal antibodies, and 2) purified mAb derived from the cloning of 5A6-2D5 and 2F10-1A9. Medium was used as a negative control, while unconjugated OVA (10 μg/mL, 50 μL/well) served as a […] for the competitive binding ELISA of the polyclonal serum (Table 2) and purified mAb (Table 6). Two types of plates were utilized: a conical bottom polypropylene plate was used for the incubation of the antibody-antigen mixture, whereas a 96-well MAXISORP plate (a high protein-binding capacity polystyrene multi-well ELISA plate) was used for the ELISA.
In brief, the polypropylene incubation plate was blocked with 300 μL of blocking buffer (1% BSA in PBS with 0.02% azide) and was allowed to incubate overnight at 4° C. The following day, the blocking buffer was removed (flicked) from the plate, and the plate was blotted on a paper towel. A 96-well ELISA plate was coated with the BSA-VIB antigen (10 μg/mL, 50 μL/well) that had been diluted in PBS with 0.02% azide. After incubating overnight at 4° C., the plate was washed 4 times (300 μL/wash) as described above, blocked with 300 μL of blocking buffer for 1 h, and washed again.
The OVA-VIB antigen was diluted in blocking buffer in micro centrifuge tubes at antigen concentrations ranging from 0-250 μg/mL. The diluted antigens (50 μL/well) were transferred from the micro centrifuge tubes to the polypropylene incubation plate that had been blocked and washed. Fifty microliters of the diluted polyclonal mouse serum (1:10,000 dilution) or mAb (0.11 μg protein/mL) were added to the incubation plate wells containing the diluted OVA-VIB antigen. The polypropylene plate was then incubated on a rocking platform for 2 h at room temperature, allowing time for the antigen-antibody complexes to form.
A portion of the antigen/antibody mixture (50 μL) was transferred from the polypropylene incubation plate to the BSA-VIB-coated ELISA plate that had been blocked and washed. The ELISA plate was incubated with gentle agitation for 1 h at room temperature and was washed 4 times with the EWB. […] The ELISA plate was allowed to incubate with gentle agitation for 1 h at room temperature and was read at 405 nm, tracking the OD of the yellow water-soluble product, p-nitrophenol. […]
Background: In an ELISA, binding on a coated surface is turned into a signal by an enzyme label.

The mark [4] stands for this setting: against the BSA-VIB antigen, 10 μg/mL.

Sequence of BSA-VIB antigen (P02769 25-607): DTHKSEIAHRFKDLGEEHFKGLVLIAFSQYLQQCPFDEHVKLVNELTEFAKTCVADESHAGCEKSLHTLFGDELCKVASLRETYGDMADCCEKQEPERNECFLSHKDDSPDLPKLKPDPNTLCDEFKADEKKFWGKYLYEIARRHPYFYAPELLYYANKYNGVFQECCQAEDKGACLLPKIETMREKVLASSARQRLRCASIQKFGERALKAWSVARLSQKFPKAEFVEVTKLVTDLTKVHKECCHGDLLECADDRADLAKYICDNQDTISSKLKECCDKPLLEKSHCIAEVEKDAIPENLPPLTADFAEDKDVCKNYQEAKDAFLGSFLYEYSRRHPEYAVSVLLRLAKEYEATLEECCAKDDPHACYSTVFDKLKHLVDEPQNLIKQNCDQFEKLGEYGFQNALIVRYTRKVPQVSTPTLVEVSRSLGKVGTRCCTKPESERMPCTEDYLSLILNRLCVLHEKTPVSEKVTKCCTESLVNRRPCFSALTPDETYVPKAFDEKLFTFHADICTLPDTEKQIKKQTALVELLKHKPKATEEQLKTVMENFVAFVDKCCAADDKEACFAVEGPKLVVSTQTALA

As to `CC1OC(c2cccc(O)c2O)=NC1C(=O)NCCCN(CCCNC(=O)c1cccc(O)c1O)C(=O)C1N=C(c2cccc(O)c2O)OC1C` (centres unmarked) [Compound 3, vibriobactin], the “iron sequestration in vivo (in words)” value in assay [1] was “found to sequester iron in vivo”. The molecule also had an iron clearing efficiency in assay [1] (bile and urine collected 48 h) of 4.3±1.1%.

B1: OVA: unconjugated ovalbumin, control in the competitive binding ELISA (protein, UniProt P01012 2-386, looked up)
Ovalbumin: GSIGAASMEFCFDVFKELKVHHANENIFYCPIAIMSALAMVYLGAKDSTRTQINKVVRFDKLPGFGDSIEAQCGTSVNVHSSLRDILNQITKPNDVYSFSLASRLYAEERYPILPEYLQCVKELYRGGLEPINFQTAADQARELINSWVESQTNGIIRNVLQPSSVDSQTAMVLVNAIVFKGLWEKAFKDEDTQAMPFRVTEQESKPVQMMYQIGLFRVASMASEKMKILELPFASGTMSMLVLLPDEVSGLEQLESIINFEKLTEWTSSNVMEERKIKVYLPRMKMEEKYNLTSVLMAMGITDVFSSSANLSGISSAESLKISQAVHAAHAEINEAGREVVGSAEAGVDAASVSEEFRADHPFLFCIKHIATNAVLFFGRCVSP
B1: the “optical density of mAb incubated with OVA greater than mAb first incubated with OVA-VIB at the same concentration” value with BSA-VIB antigen [2] (setting [4]) is “approximately 90%”. For the same molecule, the “effectiveness as competitor (in words)” value in the assay with BSA-VIB antigen [2] (purified mAb, antigen 0-250 μg/mL) is on record as “not an effective competitor”; with BSA-VIB antigen [3] (sera from immunized mice, antigen 0-250 μg/mL), “not an effective competitor”. The “BSA-VIB Antigen: Optical Density at 405 nm” value turned out to be 1.152 in the assay with BSA-VIB antigen [3] (M1 serum 1:10,000 incubated with unconjugated OVA 10 μg/mL) and 1.655 in the assay on BSA-VIB antigen [3] (M2 serum 1:10,000 incubated with unconjugated OVA 10 μg/mL). Also, the “optical density of serum incubated with OVA greater than serum first incubated with OVA-VIB at the same concentration” value with BSA-VIB antigen [3] (setting [4]) was found to be 92%.
